Numbering of substitutions follows the chain as printed. Read-outs that look alike come from different tables or passages of the source.
Legend:
[1] = biological target: T1, human recombinant PD-L1 protein (Acro Biosystems, cat #: PD1-H5229) (human, UniProt Q9NZQ7 19-238); test: ELISA, PD-L1 protein coated on the plate, OD 405
T1 construct: Bought protein; also called human PD-L1; recombinant human PD-L1

[2] = biological target: T2, cynomolgus PD-L1 protein (Acro Biosystems, cat #: PD1-C52H4) (cynomolgus, UniProt Q9NZQ7 19-238 (human entry)); test: ELISA, PD-L1 protein coated on the plate, OD 405
T2 construct: Bought protein; also called cyno PD-L1

[3] = biological target: T3, mouse PD-L1 protein (Acro Biosystems, cat #: PD1-M5220) (mouse, UniProt Q9EP73 19-238); test: ELISA, PD-L1 protein coated on the plate, OD 405
T3 construct: Bought protein; also called murine PD-L1

[4] = biological target: T4, human PD-L1 expressed on the cell surface (HEK293T-PD-L1 cells; Promega artificial APC CHO-K1 cells) (human, UniProt Q9NZQ7 19-290); test: cell-based or functional assay
[5] = biological target: T1, human recombinant PD-L1 protein (Acro …); test: ELISA, PD-L1 protein coated on the plate, OD 405; remark: listed apart in the source
[6] = biological target: T2, cynomolgus PD-L1 protein (Acro …); test: ELISA, PD-L1 protein coated on the plate, OD 405; remark: listed apart in the source
[7] = biological target: T3, mouse PD-L1 protein (Acro Biosystems, …); test: ELISA, PD-L1 protein coated on the plate, OD 405; remark: listed apart in the source
[8] = biological target: T1, human recombinant PD-L1 protein (Acro …); test: SPR (Biacore3000), antibody captured by anti-human IgG on CM5, PD-L1 as analyte, 1:1 binding with mass transfer
[9] = biological target: T4, human PD-L1 expressed on the cell …; test: immunofluorescence imaging on HEK293T-PD-L1 cells
[10] = biological target: T5, mouse CD137 expressed on the cell surface of HEK293T cells (mouse, UniProt P20334 24-256); test: immunofluorescence imaging binding assay on mouse CD137-expressing HEK293T cells
T5 construct: whole, on cells; also called murine CD137; mouse 4-1BB

[11] = biological target: T6, human CD137 expressed on the cell surface of HEK293T cells (human, UniProt Q07011 24-255); test: immunofluorescence imaging on HEK293T cells expressing human CD137
T6 construct: Stably or transiently transfected HEK293T cells; also on HEK293T and Jurkat T NFκB reporter cells; also called human CD137 (WT); 4-1BB

[12] = biological target: T7, cynomolgus CD137 expressed on the cell surface of HEK293T cells (cynomolgus, UniProt Q07011 24-255 (human entry)); test: immunofluorescence imaging on HEK293T cells expressing cynomolgus CD137
T7 construct: also called cyno CD137
T7 chain: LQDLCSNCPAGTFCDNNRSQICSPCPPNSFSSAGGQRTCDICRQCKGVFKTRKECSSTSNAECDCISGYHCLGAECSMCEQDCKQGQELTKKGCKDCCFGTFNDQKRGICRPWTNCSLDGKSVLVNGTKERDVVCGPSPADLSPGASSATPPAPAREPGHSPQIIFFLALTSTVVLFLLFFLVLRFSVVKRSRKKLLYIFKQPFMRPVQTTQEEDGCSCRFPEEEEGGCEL

[13] = biological target: T6, human CD137 expressed on the cell …; test: immunofluorescence imaging binding assay on human CD137-expressing HEK293T cells
[14] = biological target: T5, mouse CD137 expressed on the cell …; test: immunofluorescence imaging binding assay on mouse CD137-expressing HEK293T cells; remark: listed apart in the source
[15] = biological target: T5, mouse CD137 expressed on the cell …; test: as above; remark: listed apart in the source
[16] = biological target: T8, human CD137 (Sino Biological, cat #10041-H08H) (human, UniProt Q07011 24-186); test: SPR (Biacore3000), antibody captured by anti-human IgG on CM5, CD137 as analyte, 1:1 binding with mass transfer
T8 construct: Bought protein used as the analyte in SPR; also called CD137 antigen in Biacore
T8 sequence (Q07011 24-186 limits assumed): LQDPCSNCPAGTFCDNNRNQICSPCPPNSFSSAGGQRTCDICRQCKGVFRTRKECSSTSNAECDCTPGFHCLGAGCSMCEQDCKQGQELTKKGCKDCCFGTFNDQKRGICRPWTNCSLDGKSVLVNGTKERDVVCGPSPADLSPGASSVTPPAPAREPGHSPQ

T5 sequence (P20334 24-256): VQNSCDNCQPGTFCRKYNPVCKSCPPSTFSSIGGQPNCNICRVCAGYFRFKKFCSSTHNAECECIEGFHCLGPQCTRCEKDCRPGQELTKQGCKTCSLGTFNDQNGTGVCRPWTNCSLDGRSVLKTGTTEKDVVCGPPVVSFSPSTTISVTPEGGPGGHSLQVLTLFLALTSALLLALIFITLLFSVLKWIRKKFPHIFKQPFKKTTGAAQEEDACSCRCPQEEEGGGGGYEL
T1 sequence (Q9NZQ7 19-238 limits assumed): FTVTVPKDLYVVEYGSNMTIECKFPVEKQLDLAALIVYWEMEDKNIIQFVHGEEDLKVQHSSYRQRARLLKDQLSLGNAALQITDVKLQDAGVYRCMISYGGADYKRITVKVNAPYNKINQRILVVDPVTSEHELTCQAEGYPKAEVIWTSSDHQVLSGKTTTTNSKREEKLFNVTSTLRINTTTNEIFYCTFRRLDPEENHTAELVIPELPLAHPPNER
T4 sequence (Q9NZQ7 19-290 limits assumed): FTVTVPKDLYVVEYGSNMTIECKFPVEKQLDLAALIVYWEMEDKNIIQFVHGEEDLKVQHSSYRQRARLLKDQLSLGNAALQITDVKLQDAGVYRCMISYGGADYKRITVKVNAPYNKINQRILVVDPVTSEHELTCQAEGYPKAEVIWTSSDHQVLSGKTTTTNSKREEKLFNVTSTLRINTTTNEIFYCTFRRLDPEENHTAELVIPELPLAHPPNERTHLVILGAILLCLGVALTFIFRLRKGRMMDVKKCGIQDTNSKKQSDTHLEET
T3 sequence (Q9EP73 19-238 limits assumed): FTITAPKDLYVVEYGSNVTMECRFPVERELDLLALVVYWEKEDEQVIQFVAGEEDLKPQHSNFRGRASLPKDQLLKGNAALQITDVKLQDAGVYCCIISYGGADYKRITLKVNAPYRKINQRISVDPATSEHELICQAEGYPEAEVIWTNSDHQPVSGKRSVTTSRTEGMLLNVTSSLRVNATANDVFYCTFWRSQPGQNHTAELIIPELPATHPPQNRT
T2 sequence (Q9NZQ7 other isoform, or with tags, fused parts or gaps limits assumed): as the sequence (Q9NZQ7 19-238 limits assumed) above, with A33T, A34S, S62N, R68Q, Q82R, F173L, T185A, T192I, H215L counted along it

B1: 1923Ab2 (antibody, V domains shown)
VH: QVQLVESGGGVVQPGRSLRLSCAASGFTFRNYGMHWVRQAPGKGLEWVAVIWFDGINKYYADSVKGRFTISRDNSENTLYLQMNSLRAEDTAVYYCARDRSSSPFDFWGQGTLVTVSS
VL: EIVMTQSPATLSLSPGERATLSCRASQNFSNNYLSWYQQTPGQAPRLLIYGASTRATGIPARFSGSGSGTDFTLTISSLQPEDFAVYYCQQDYNLFTFGPGTKVDIK
notes: Fully human variable regions from Trianni mice; Constant region as tested not clear: hybridoma-derived (mouse constant) or recombinant human IgG1 / IgG1 variant with human kappa; also called PD-L1 monospecific 1923Ab2; anti-PD-L1 antibody 1923Ab2
B1 was tested, and the EC50 [1] was 90 pM, the EC50 [2] was 80 pM and the binding result [3] was “no binding”. The “IC50, PD-1/PD-L1 blockade luciferase reporter assay” value [4] was 900 pM.

B2: 1923Ab3 (antibody, V domains shown)
VH: QVQLVQSGAEVKKPGASVKVSCKASGYTFTSYDINWVRQATGQGLEWMGWMNPNSGITGYAQRFQGRVTMTRDTSISTAYMELSSLRSEDTAVYYCARHRWGKGYLDLWGRGTLVTVSS
VL: EIVMAQSPATLSLSPGERATLSCRASQSVSSSYLSWFQQKPGQAPRLLIYGASTRATGIPARFGGSGSGTDFTLTISSLQPEDFAVYYCQQDYNLPYTFGQGTKLEIK
notes: also called PD-L1 monospecific 1923Ab3; anti-PD-L1 antibody 1923Ab3
For B2, the EC50 [5] was 80 pM, the EC50 [6] was 70 pM and the binding result [7] was “no binding”. For the same binder, the “IC50, PD-1/PD-L1 blockade luciferase reporter assay” value [4] was 430 pM, the Kd [8] was 2950 pM and the koff [8] was 0.0024 s⁻¹. It also gave a kon [8] of 814000 M⁻¹ s⁻¹ and an EC50 [9] of 180 pM.

B3: 1923Ab5 (antibody, human IgG1, V domains shown)
VH: QVQLVESGGGVVQPGRSLRLSCAASGFTFSSYGMHWVRQAPGKGLEWVAVIWYDGSNEYYADSVKGRFTISRDNSKNTLYLQMNSLRAEDTAVYYCARERWQWLVLFDYWGQGTLVTVSS
VL: B2 VL with M4L, A5T, S28T, V29I, S30T, F37Y, G64S, V86L, Y88F, Y93F
notes: also called CD137 monospecific 1923Ab5
For B3, the binding result [10] was “no binding”, the EC50 [11] was 1620 pM and the EC50 [12] was 2770 pM. For the same binder, the EC50 [13] was 1600 pM.

B4: 1923Ab6 (antibody, human IgG1, V domains shown)
VH: EVHLLESGGGLVQPGGSLRLSCAASGFTFSSYAMGWVRQAPGKGLEWVSIIGGGGGSTYYADSVKGRFTISRDNSKNTLYLQMNSLRAEDTAVYYCAKVGYSGTYGGWFDPWGQGTLVTVSS
VL: DIQMTQSPSSLSASIGDRVAITCRASQGISNYLAWFQQKPGKAPKSLIYAASSLQSGVPSKFSGSGSGTDFTLTISSLQPEDFATYYCQQYNSYPLTFGGGTKVEIK
notes: also called CD137 monospecific 1923Ab6
With B4 the EC50 [11] was 10500 pM, the EC50 [12] was 4230 pM and the binding result [14] was “no binding”. It also gave an EC50 [13] of 11000 pM.

B5: 1923Ab4 (antibody, V domains shown)
VH: QVQLVESGGGVVQPGRSLRLSCAASGFTFSNYGMHWVRQAPGKGLEWVAIIWYDGINKYYADSVKGRFTISRDNSKNTLYLQMNSLKAEDTAVYYCARDQDYDILTGYYKEDYFDFWGQGTLVTVSS
VL: SYELTQPPSVSVSPGQTARITCSGDALPKKYAYWYQQKSGQAPVLVIYEDSKRPSGIPERFSGSSSGTMATLTISGAQVEDEADYYCYSTDSSGNRVFGGGTKLTVL
notes: also called CD137 monospecific 1923Ab4; anti-CD137 1923Ab4
B5 was tested, and the binding result [15] was “no binding”, the EC50 [11] was 290 pM and the EC50 [12] was 220 pM. It also gave a Kd [16] of 7180 pM, a koff [16] of 0.0219 s⁻¹ and a kon [16] of 3.05e+06 M⁻¹ s⁻¹.
